Source: patent US20230265198A1 (TWIST BIOSCIENCE, published 2023)
Positions count from the first letter of the chain named.

B1: NRP1-53 (VHH)
VHH: EVQLVESGGGLVQPGGSLRLSCAASGRTFNRYPMGWFRQAPGKEREWVAAITPQGVPNYADSVKGRFTISADNSKNTAYLQMNSLKPEDTAVYYCAIHTSREIWGQGTLVTVSS
B2: NRP1-58 (VHH)
VHH: B1 VHH with A50G, T52N, P53S, Q54G, V56G, P57T, N58W
B3: NRP1-233 (antibody, IgG2, V domains shown)
VH: EVQLLESGGGLVQPGGSLRLSCAASGFSFSTYAMTWVRQAPEKGLEWVSSIGGSGRSTYYADSVKGRFTISRDNSKNTLYLQMNSLRAEDTAVYYCARLKRGGTNLVRKATRYQFYGMDAWGQGTLVTVSS
VL: DIQMTQSPSSLSASVGDRVTITCRASQSISSYLAWYQQKPGKAPKLLIYAGSGLQSGVPSRFSGSGSGTDFTLTISSLQPEDFATYYCQQSFTSPLTFGGGTKVEIK
B4: NRP1-253 (antibody, IgG2, V domains shown)
VH: EVQLLESGGGLVQPGGSLRLSCAASGFTFSNHAMSWVRQAPGKGLEWVSTISGSGGSTYYVDSVKGRFTISRDNSKNTLYLQMNSLRAEDTAVYYCARGGPAPLFDYWGQGTLVTVSS
VL: B3 VL with A25S, A34N, G51A, G53N, L54F, S91T, F92Y, T93S, S94I
B5: NRP1-245 (antibody, IgG2, V domains shown)
VH: EVQLLESGGGLVQPGGSLRLSCAASGLTFSRYAMSWVRQAPGKGLEWVSTISGRGGSTNYADSVKGRFTISRDNSKNTLYLQMNSLRAEDTAVYYCAKDSARFISPPRGIRIRGVVLSGFDSWGQGTLVTVSS
VL: B3 VL with S31T, Y32S, A34N, G51T, G53S, S91A, F92Y, T93S, S94T
B6: NRP1-277 (antibody, IgG2, V domains shown)
VH: EVQLLESGGGLVQPGGSLRLSCAASGFRFSTYAMSWVRQAPGKGLEWVSTVSGSGAYTYYADSVKGRFTISRDNSKNTLYLQMNSLRAEDTAVYYCADIAVAGTWGQGTLVTVSS
VL: B3 VL with S28R, S31D, A34N, G51A, G53T, T93S, S94T, L96I
B7: NRP1-251 (antibody, IgG2, V domains shown)
VH: EVQLLESGGGLVQPGGSLRLSCAASGSTFSSHAMSWVRQAPGKGLEWVSGISASGGSTHYADSVKGRFTISRDNSKNTLYLQMNSLRAEDTAVYYCARLKRGGTNLVRKATRYQFYGMDAWGQGTLVTVSS
VL: B3 VL with I29V, Y32H, A34N, A50D, G51A, G53S, F92Y, T93K, S94T, L96V
B8: NRP1-44 (VHH)
VHH: EVQLVESGGGLVQPGGSLRLSCAASGRSFSTYIMGWFRQAPGKERELVARITSGGYTYADSVKGRFTISADNSKNTAYLQMNSLKPEDTAVYYCAADVSPSYGSRWYWGQGTLVTVSS
B9: NRP1-70 (VHH)
VHH: EVQLVESGGGLVQPGGSLRLSCAASGDTFSRYTMGWFRQAPGKEREFVATIWWTFDAPYYADSVKGRFTISADNSKNTAYLQMNSLKPEDTAVYYCAARSPMSPTWDWGQGTLVTVSS
B10: NRP1-121 (antibody, IgG2, V domains shown)
VH: QVQLVQSGAEVKKPGSSVKVSCKASGGTFSNYAISWVRQAPGQGLEWMGGIIPINYAQKFQGRVTITADESTSTAYMELSSLRSEDTAVYYCVRRVVGATPFDYWGQGTLVTVSS
VL: DIQMTQSPSSLSASVGDRVTITCRASQIIRRYLNWYQQKPGKAPKLLIYPASSLQSGVPSRFSGSGSGTDFTLTISSLQPEDFATYYCQQAYSTPMFGQGTKVEIK
B11: NRP1-263 (antibody, IgG2, V domains shown)
VH: EVQLLESGGGLVQPGGSLRLSCAASGFTFKKYAMSWVRQAPGKGLEWVSTISGSGRSTYYADSVKGRFTISRDNSKNTLYLQMNSLRAEDTAVYYCARDLARGTMPRGVIIPHNWFDPWGQGTLVTVSS
VL: DIQMTQSPSSLSASVGDRVTITCRASQTISNYLNWYQQKPGKAPKLLIYGATSLQSGVPSRFSGSGSGTDFTLTISSLQPEDFATYYCQQSYNTPTTFGGGTKVEIK
B12: NRP1-297 (antibody, IgG2, V domains shown)
VH: EVQLLESGGGLVQPGGSLRLSCAASGFTFGRYAMSWVRQAPGKGLEWVSSISGSGGSTYYTDSVKGRFTISRDNSKNTLYLQMNSLRAEDTAVYYCVRALAGRRDHWGQGTLVTVSS
VL: B11 VL with A25T, T28R, N31T, Y32S, T52S, S53N, V58A, N93F, T96I
B13: NRP1-296 (antibody, IgG2, V domains shown)
VH: EVQLLESGGGLVQPGGSLRLSCAASGFTFSGHAMSWVRQAPGKGLEWVSGISGSGGKIYYADSVKGRFTISRDNSKNTLYLQMNSLRAEDTAVYYCTRDVRSKDYVRGSSRYHGGMDVWGQGTLVTVSS
VL: B11 VL with Q27H, T28S, N31R, G50S, T52S, Q55R, S91R, N93I, T96W
B14: NRP1-269 (antibody, IgG2, V domains shown)
VH: EVQLLESGGGLVQPGGSLRLSCAASGFTFSNYVMTWVRQAPGKGLEWVSTISGSGGGTFYADSVKGRFTISRDNSKNTLYLQMNSLRAEDTAVYYCATDTVWASAWGSWGQGTLVTVSS
VL: B11 VL with S30R, N31K, G50A, T52S, L78M, N93S, T96I
B15: NRP1-62 (VHH)
VHH: EVQLVESGGGLVQPGGSLRLSCAASGSSLSNYTMGWFRQAPGKERELVATIWWTVGAPYYADSVKGRFTISADNSKNTAYLQMNSLKPEDTAVYYCAAYQRGWGDWGQGTLVTVSS
B16: NRP1-27 (VHH)
VHH: EVQLVESGGGLVQPGGSLRLSCAASGFRFGDYPMGWFRQAPGKEREFVSAISWSGGSTVYADSVKGRFTISADNSKNTAYLQMNSLKPEDTAVYYCALGPVRRSRLEWGQGTLVTVSS
B17: NRP1-82 (VHH)
VHH: EVQLVESGGGLVQPGGSLRLSCAASGRTFNRYPMGWFRQAPGKEREWVSAINSNGNRYYYADSVKGRFTISADNSKNTAYLQMNSLKPEDTAVYYCAIHTSREIWGQGTLVTVSS
B18: NRP1-84 (VHH)
VHH: EVQLVESGGGLVQPGGSLRLSCAASGRTFSNYKMGWFRQAPGKEREFVARIFTDDGDSYYADSVKGRFTISADNSKNTAYLQMNSLKPEDTAVYYCAKWDGLGTLWGQGTLVTVSS
B19: NRP1-43 (VHH)
VHH: EVQLVESGGGLVQPGGSLRLSCAASGYFASWYYMGWFRQAPGKEREWVATIYSPSGSAVYADSVKGRFTISADNSKNTAYLQMNSLKPEDTAVYYCARDSFYDGSGYSPWGQGTLVTVSS
B20: NRP1-105 (VHH)
VHH: EVQLVESGGGLVQPGGSLRLSCAASGTTFRINVMGWFRQAPGKERELVAAMRWSSSSTDYADSVKGRFTISADNSKNTAYLQMNSLKPEDTAVYYCAASIEGVSGRWGQGTLVTVSS
B21: NRP1-35 (VHH)
VHH: EVQLVESGGGLVQPGGSLRLSCAASGSIFSFNAMGWFRQAPGKERELVASITPGGNINYADSVKGRFTISADNSKNTAYLQMNSLKPEDTAVYYCARDVEGGWYGLSYGMDVWGQGTLVTVSS

Target: neuropilin-1 (NRP1) on HEK293 cells overexpressing NRP1 (UniProt O14786)
Assay: flow cytometry, HEK293-NRP1 vs HEK293

Question: How did the 100 nM FACS (MFI Ratio) turn out when B1 was run?
Answer: The 100 nM FACS (MFI Ratio) was 1.9.

Question: For B2, which 100 nM FACS (MFI Ratio) is on record?
Answer: The 100 nM FACS (MFI Ratio) was 1.9.

Question: B3 was tested. Which 100 nM FACS (MFI Ratio) did it give?
Answer: The 100 nM FACS (MFI Ratio) was 1.7.

Question: How did the 100 nM FACS (MFI Ratio) turn out when B4 was run?
Answer: Its 100 nM FACS (MFI Ratio) is 1.5.

Question: How did the 100 nM FACS (MFI Ratio) turn out when B5 was run?
Answer: Its 100 nM FACS (MFI Ratio) is 2.

Question: B6 was tested. Which 100 nM FACS (MFI Ratio) did it give?
Answer: Its 100 nM FACS (MFI Ratio) is 1.5.

Question: How did the 100 nM FACS (MFI Ratio) turn out when B7 was run?
Answer: Its 100 nM FACS (MFI Ratio) is 1.5.

Question: For B8, which 100 nM FACS (MFI Ratio) is on record?
Answer: The 100 nM FACS (MFI Ratio) was 1.6.

Question: Which 100 nM FACS (MFI Ratio) does the source give for B9 here?
Answer: The 100 nM FACS (MFI Ratio) was 1.9.

Question: With B10 as the binder, how does the 100 nM FACS (MFI Ratio) read?
Answer: Its 100 nM FACS (MFI Ratio) is 1.5.

Question: With B11 as the binder, how does the 100 nM FACS (MFI Ratio) read?
Answer: Its 100 nM FACS (MFI Ratio) is 1.9.

Question: Which 100 nM FACS (MFI Ratio) does the source give for B12 here?
Answer: Its 100 nM FACS (MFI Ratio) is 1.6.

Question: Which 100 nM FACS (MFI Ratio) does the source give for B13 here?
Answer: Its 100 nM FACS (MFI Ratio) is 1.5.

Question: How did the 100 nM FACS (MFI Ratio) turn out when B14 was run?
Answer: The 100 nM FACS (MFI Ratio) was 1.9.

Question: How did the 100 nM FACS (MFI Ratio) turn out when B15 was run?
Answer: The 100 nM FACS (MFI Ratio) was 1.5.

Question: Which 100 nM FACS (MFI Ratio) does the source give for B16 here?
Answer: The 100 nM FACS (MFI Ratio) was 2.1.

Question: Which 100 nM FACS (MFI Ratio) does the source give for B17 here?
Answer: The 100 nM FACS (MFI Ratio) was 2.

Question: For B18, which 100 nM FACS (MFI Ratio) is on record?
Answer: Its 100 nM FACS (MFI Ratio) is 1.7.

Question: For B19, which 100 nM FACS (MFI Ratio) is on record?
Answer: Its 100 nM FACS (MFI Ratio) is 1.5.

Question: For B20, which 100 nM FACS (MFI Ratio) is on record?
Answer: Its 100 nM FACS (MFI Ratio) is 1.8.

Target: neuropilin-1 (NRP1), analyte in SPR (UniProt O14786 22-644, limits assumed)
Assay: SPR, Carterra LSA, antibody coupled
Procedure: SPR experiments were performed on a Carterra LSA SPR biosensor equipped with a HC30M chip at 25° C. in HBS-TE. Antibodies were diluted to 10 μg/mL and amine-coupled to the sensor chip by EDC/NHS activation, followed by ethanolamine HCl quenching. Increasing concentrations of analyte were flowed over the sensor chip in HBS-TE with 0.5 mg/mL BSA with 5-minute association and 15-minute dissociation. Following each injection cycle the surface was regenerated with 2× 30-second injections of IgG elution buffer (Thermo). Data were analyzed in Carterra's Kinetics Tool software with 1:1 binding model.

Question: Does B16 bind?
Answer: Result: no binding

Question: Does B21 bind?
Answer: Result: no binding

Target: T1, neuropilin-1 (NRP1) on HEK293 cells overexpressing NRP1 (UniProt O14786 22-923, limits assumed)
T1 construct: whole, on cells
Assay: flow cytometry, HEK293-NRP1 vs HEK293

Question: How did the “100 nM FACS (MFI Ratio)” value turn out when B21 was run?
Answer: Its value is 2.9.
